Experimental data taken from paper PMC4740771, “Nucleotide-dependent assembly of the peroxisomal receptor export complex” (Scientific Reports, 2016).
Where a chain is given by its changes, count along the chain named.

Key:
Details in all cases: both partners purified
[1] = biological target: T1, HisPex1p(E798Q) released from its GST fusion (S. cerevisiae, UniProt P24004 1-1043, E798Q); assay: SEC; second gel filtration of the purified heterohexameric complexes after incubation at 37 °C
T1 construct: Pex1p of yeast with a Walker B mutation of the D2 domain; also called Pex1WB^E798Q; Pex1pWB; not shown: His6, N-terminal, kept; GST, C-terminal, cleaved
T1 sequence (looked up): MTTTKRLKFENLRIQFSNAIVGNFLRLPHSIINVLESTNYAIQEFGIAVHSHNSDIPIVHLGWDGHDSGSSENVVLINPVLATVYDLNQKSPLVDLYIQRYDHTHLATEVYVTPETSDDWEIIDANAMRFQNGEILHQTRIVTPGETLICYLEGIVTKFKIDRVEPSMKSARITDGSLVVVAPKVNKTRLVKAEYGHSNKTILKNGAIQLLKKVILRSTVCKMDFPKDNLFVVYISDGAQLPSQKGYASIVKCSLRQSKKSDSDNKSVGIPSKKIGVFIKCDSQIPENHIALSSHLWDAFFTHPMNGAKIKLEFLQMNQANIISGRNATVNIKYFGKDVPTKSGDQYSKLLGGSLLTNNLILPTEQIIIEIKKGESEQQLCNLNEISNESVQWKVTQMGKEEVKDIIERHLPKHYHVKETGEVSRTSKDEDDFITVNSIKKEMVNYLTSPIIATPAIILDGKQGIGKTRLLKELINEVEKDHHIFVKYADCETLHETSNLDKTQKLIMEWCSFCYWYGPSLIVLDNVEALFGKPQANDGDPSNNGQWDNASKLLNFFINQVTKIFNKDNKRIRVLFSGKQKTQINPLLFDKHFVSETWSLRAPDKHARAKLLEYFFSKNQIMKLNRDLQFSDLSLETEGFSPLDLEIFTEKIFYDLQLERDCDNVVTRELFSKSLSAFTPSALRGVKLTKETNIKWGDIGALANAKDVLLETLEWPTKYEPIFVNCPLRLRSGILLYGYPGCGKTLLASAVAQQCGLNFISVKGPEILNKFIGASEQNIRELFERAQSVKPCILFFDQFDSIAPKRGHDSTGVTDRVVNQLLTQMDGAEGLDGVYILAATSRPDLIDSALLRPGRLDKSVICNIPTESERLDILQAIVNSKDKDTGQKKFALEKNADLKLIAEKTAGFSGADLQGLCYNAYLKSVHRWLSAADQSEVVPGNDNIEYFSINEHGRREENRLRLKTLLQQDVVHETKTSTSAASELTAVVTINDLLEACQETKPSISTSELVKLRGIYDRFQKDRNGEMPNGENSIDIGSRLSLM

[2] = biological target: T2, Pex15p(1-315)His (GST removed by thrombin) (S. cerevisiae, UniProt Q08215 1-315); assay: SEC; Pex1/6p/Pex15p complex isolated on GSH-agarose, released by thrombin (GST left on the column), Superose 6 (small-scale and preparative) in presence of ATP; anti-His immunoblot or Coomassie, signal intensities by ImageJ
T2 construct: Pex15p of S. cerevisiae, cytosolic part, residues 1 to 315; Same construct as m10 after thrombin cleavage; detected by anti-His antibodies; Printed mass 36 kDa; alone it eluted at about 100 kDa; also called Pex15pHis; source: E. coli BL21 (DE3), purified (Glutathione Agarose 4B), released from GSH-agarose by thrombin; not shown: GST, N-terminal, cleaved; His6, C-terminal, kept
T2 sequence (looked up): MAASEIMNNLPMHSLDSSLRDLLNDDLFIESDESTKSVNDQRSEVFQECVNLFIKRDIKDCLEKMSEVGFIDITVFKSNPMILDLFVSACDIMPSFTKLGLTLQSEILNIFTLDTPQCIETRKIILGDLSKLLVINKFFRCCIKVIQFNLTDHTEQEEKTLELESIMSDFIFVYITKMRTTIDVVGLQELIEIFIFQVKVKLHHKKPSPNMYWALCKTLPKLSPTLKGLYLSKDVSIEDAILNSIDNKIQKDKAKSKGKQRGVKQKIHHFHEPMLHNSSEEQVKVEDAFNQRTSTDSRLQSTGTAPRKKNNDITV

[3] = biological target: T3, HisPex1p released from HisPex1pGST by thrombin (S. cerevisiae, UniProt P24004 1-1043); assay: as above
T3 construct: Pex1p, type II AAA-ATPase peroxin of yeast; The GST tag held the complex on GSH-agarose during purification and stayed on the column after thrombin cleavage; source: E. coli Tuner (DE3), co-purified with HisPex6p (NiNTA-agarose, GSH-agarose, thrombin release); not shown: His6, N-terminal, kept; GST, C-terminal, cleaved
T3 sequence (looked up): T1 sequence (looked up) with Q798E

binding result [1]: binds
stoichiometry N [2]: 1 Pex15p per Pex6p
stoichiometry N [3]: 0.9 Pex6p per Pex1p
B1: HisPex6p (natural protein, S. cerevisiae, UniProt P33760 1-1030, looked up)
chain: MKASLTFSLSGIYAPCSISRDIYLEYGDKKAECLYGTIRLPQYGPGCTPGKIVHCVLDDSLPFCSIVVPSKLFGFMPTQPTMDFCYFEPILDNVVPVLDSVTFLINEQLYSKLMDLPQEMQQIQFLHYKYNINSMETVVHSRDILTSGLCQILNCSPFPQGLVDFTETQLILVNDTEQKLSALKYANEDEEYALPKIGTNSALSIDLESLPCTISRDLLRPAPHINDDNSIYAFTDAETLLRLDVTSGSFITVSNMGCVRLVKLFVLLLPNGFKKRTIYAPPKIIASFPDCSVVTISKSNIGHTDIPIANQVFISRVGGWLQSQKCFQNIILTTLKKFFSESKRILCQNDLIPIAFDSSMADLNIAEENDESDDEDELGQYYKNDSLVWFFVTSAELDCFSKDNSHFIIDPNRTKLITTNITNRRPLPLSRSNLQRYYGFAETFYYDLHIFPYVRQLVNILETSFNCSQRGITLNASVLLHSTTNNVGKATMVRFASKYLGIHLLEIDCLSLTSNSRQLDSTSKIIGYIRAKCENVLPYASPAVIFLAHLDSILLDVNANQDPEAIKLQKSINFEMSKLLDDFTFKFPGTTFVGSVNNIDNVPSSFRSHMRFEILVPVPSEAQRLRIFQWYLSSHELNRDVQQKVPVSYMDNISFSSLSSYSAGLTPLDIKSIVETARMTATARFYQESKKCGWLPQSILITQEDLSKATSKARNEFSVSIGAPQIPNVTWDDIGGIDFVKGEILDTIDMPLKHPELFTSGMKKRSGILFYGPPGTGKTLMAKAIATNFSLNFFSVKGPELLNMYIGESEANVRRVFQKAREAKPCVIFFDEIDSVAPKRGNQGDSGGVMDRIVSQLLAELDGMSTDADGVFVIGATNRPDLLDEALLRPGRFDKLLYLGIPDTDTKQLNILEALTRKFVLDNDVKLIELAKLCPFNYTGADFYALCSDAMLNAMSRIARMVEKKVSQHNELTGENISTRRWFDKIATKEDTKVVVKMEDFLKAQEQLTPSVSRAELNHYEAVRANFEGA
notes: Pex6p, type II AAA-ATPase peroxin of yeast; also called single Pex6p; isolated Pex6p; source: E. coli Tuner (DE3), purified (NiNTA-agarose; with HisPex1pGST also GSH-agarose and size exclusion); not shown: His6, N-terminal, kept
